Here are results for one molecule from patent US20250163117A1 (CURE GENETICS, published 2025).

As usually defined, the Kd is the constant that tells how readily two partners part at equilibrium. The low end stands for tighter binding, the high end for weaker binding. In general, koff refers to the rate constant with which the complex falls apart. As a reminder, the kon is the second-order rate constant of association. Low values mean slow association, high ones fast association.

Assay [1] has as its target T1, human intermediate-affinity IL-2 receptor IL-2Rβγ on cells (human, UniProt P14784 27-551; P31785 23-369).
T1 sequence (looked up) 1: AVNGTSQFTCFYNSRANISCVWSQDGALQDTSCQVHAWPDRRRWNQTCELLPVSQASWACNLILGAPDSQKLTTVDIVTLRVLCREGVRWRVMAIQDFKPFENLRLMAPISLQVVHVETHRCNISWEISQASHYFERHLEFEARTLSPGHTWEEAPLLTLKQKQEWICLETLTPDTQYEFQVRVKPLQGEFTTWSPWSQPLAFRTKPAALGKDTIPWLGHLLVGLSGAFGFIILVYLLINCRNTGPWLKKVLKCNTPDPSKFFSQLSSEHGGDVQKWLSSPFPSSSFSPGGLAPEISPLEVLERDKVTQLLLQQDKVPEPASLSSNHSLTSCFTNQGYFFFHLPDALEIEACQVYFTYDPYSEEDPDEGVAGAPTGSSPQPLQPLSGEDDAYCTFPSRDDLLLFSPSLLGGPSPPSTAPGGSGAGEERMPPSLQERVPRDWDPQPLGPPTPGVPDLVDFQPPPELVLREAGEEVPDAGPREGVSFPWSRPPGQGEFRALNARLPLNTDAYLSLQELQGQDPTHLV
T1 sequence (looked up) 2: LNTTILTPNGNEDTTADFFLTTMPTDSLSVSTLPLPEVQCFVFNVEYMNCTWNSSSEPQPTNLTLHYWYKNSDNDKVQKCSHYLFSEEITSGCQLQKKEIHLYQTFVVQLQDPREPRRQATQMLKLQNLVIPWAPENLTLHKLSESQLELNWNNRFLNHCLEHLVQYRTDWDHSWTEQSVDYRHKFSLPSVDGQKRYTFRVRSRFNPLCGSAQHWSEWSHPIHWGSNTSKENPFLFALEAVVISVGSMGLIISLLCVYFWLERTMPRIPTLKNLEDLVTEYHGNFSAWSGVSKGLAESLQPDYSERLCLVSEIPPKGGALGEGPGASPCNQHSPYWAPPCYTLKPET
In words: cell-based or functional assay.

For assay [2], the target named is T2, Human IL-2Rβ&IL-2Rα&IL-2Rγ protein (human, UniProt P14784 27-239; P01589 22-217; P31785 23-262, limits assumed).
T2 construct: Trimeric receptor protein used as SPR ligand; also called IL-2Rαβγ; Human IL-2RB&IL-2RA&IL-2RG
T2 sequence (looked up) 1: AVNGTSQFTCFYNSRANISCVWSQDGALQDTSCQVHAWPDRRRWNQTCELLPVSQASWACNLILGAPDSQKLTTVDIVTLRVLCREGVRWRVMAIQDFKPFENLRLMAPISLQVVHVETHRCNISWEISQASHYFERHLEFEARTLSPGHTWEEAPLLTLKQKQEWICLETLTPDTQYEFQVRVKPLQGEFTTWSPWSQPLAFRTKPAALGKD
T2 sequence (looked up) 2: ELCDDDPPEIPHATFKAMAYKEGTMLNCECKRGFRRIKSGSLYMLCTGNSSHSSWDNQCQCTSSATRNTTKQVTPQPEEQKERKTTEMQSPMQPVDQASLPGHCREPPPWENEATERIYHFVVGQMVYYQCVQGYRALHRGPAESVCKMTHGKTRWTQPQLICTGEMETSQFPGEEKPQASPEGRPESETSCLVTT
T2 sequence (looked up) 3: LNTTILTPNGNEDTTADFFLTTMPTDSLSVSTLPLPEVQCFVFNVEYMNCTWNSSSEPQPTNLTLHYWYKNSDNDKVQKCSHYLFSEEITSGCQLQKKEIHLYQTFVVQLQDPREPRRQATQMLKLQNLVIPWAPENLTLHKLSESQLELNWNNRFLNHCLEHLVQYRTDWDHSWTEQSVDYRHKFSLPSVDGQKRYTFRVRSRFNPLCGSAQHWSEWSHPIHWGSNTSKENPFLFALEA
As to the kind of experiment: SPR (Biacore, receptor on CM5 chip, IL-2 as analyte), 1:1 binding. As for the experimental part:
(§1) The human IL-2 receptors used in this study included IL-2Rα/CD25, IL-2Rβ/CD122, common γ receptor/CD132, IL-2Rβ&IL-2Rγ heterodimer protein, and IL-2Rβ&IL-2Rα&IL-2Rγ protein. The IL-2 receptor proteins were immobilized on a Biacore™ sensor chip CM5 according to manufacturer's protocol. […] The resulting sensorgrams were analyzed with the native instrument software to calculate the binding affinities.
In general terms: Surface plasmon resonance follows binding to a sensor surface in real time, without labels.

Assay [3] concerns the target T3, Human IL-2Rβ&IL-2Rγ heterodimer protein (human, UniProt P14784 27-239; P31785 23-262, limits assumed).
T3 construct: Heterodimer protein used as SPR ligand; also called IL-2Rβγ; Human IL-2RB&G
T3 sequence (looked up) 1: T2 sequence (looked up) 1
T3 sequence (looked up) 2: T2 sequence (looked up) 3
The description is as above. The method, then: as §1

B1: CP-trIL-2 012 (ligand)
chain: PTSSSTKKTQLQLEHLLLDLQMILNGINNYKNPLRPRDLISNINVIVLELKGSETTELKHLQSLEEELKDLEEVLNLAQSKNFHTIVEFLNRWITFSQSIISTLT
notes: H1-H3-H2-H4; loops 1 and 2 removed; de-Ala1, C58S, C125S, P65D
On to B1, for which, in assay [1], the “EC50 (read off the curve): STAT5 phosphorylation in HH cells” value was around 6 nM. For the same molecule, in assay [2], the Kd was determined as 0.575 nM, the off-rate (koff) was 0.000732 s⁻¹ and the kon is 1.27e+06 M⁻¹ s⁻¹. For the same molecule, in assay [3], binding was put at a Kd of 0.467 nM, the koff came out at 0.00106 s⁻¹ and the on-rate constant (kon) came to 2.28e+06 M⁻¹ s⁻¹.
